From PMC10901769, “An anti-CRISPR that represses its own transcription while blocking Cas9-target DNA binding”
Numbering of substitutions follows the chain as printed. One block for each molecule: values may come before it.

What was measured:
[1] = target: full-length AcrIIA15 (Staphylococcus (identified from Staphylococcus genomes)); assay: crystal structure; free full-length AcrIIA15; 2.34 Å
[2] = target: full-length AcrIIA15 (Staphylococcus (identified from Staphylococcus genomes)); assay: cryo-EM structure; SaCas9-sgRNA-AcrIIA15-IR1 quaternary complex, mixed at 1:1.1:0.9:0.6, purified by SEC in 20 mM Tris pH 7.5, 0.1 M NaCl; 3.82 Å
[3] = target: full-length AcrIIA15 (Staphylococcus (identified from Staphylococcus genomes)); assay: crystal structure; AcrIIA15 (full-length or NTD) with IR1 promoter DNA, mixed at 2:1.1 in 20 mM Tris pH 7.5, 100 mM NaCl; 3.15 Å and 3.10 Å
[4] = target: full-length AcrIIA15 (Staphylococcus (identified from Staphylococcus genomes)); assay: SEC; dimerization state of wild-type or mutated AcrIIA15; Superdex 75, 20 mM Tris-HCl pH 7.5, 0.5 M NaCl
[5] = target: full-length AcrIIA15 R2A mutant (Staphylococcus (identified from Staphylococcus genomes)); assay: as above
[6] = target: N-terminal domain of AcrIIA15 (AcrIIA15^NTD) (Staphylococcus (identified from Staphylococcus genomes)); assay: crystal structure; AcrIIA15 (full-length or NTD) with IR1 promoter DNA, mixed at 2:1.1 in 20 mM Tris pH 7.5, 100 mM NaCl; 3.15 Å and 3.10 Å
AcrIIA15 full-length [7] = target: T1, AcrIIA15 full-length (UniProt PDB:8JG9_3 1-171); assay: EMSA; Promoter EMSA: 20 mM Tris-HCl pH 7.5, 300 mM NaCl, on ice/4 C, 30 min; SaCas9 EMSA: 20 mM Tris pH 7.5, 200 mM NaCl, 10 mM EDTA, RT; SPR: 10 mM Na2HPO4, 2 mM KH2PO4, 0.3 M NaCl; SEC: 20 mM Tris pH 7.5, 300 mM NaCl; conditions: protein: recombinant; tags: C-terminal His6, or His6-Sumo removed by Ulp1; chain copies: 2; blunt
T1 sequence: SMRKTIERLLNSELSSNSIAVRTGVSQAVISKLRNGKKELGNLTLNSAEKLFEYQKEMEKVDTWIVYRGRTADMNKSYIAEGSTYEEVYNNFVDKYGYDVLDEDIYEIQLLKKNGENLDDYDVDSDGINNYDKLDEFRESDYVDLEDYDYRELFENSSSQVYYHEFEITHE

AcrIIA15 K31A = target: T2, AcrIIA15 K31A (UniProt PDB:8JG9_3 1-171, K32A); assay: as above; conditions: protein: recombinant; tags: C-terminal His6; chain copies: 2; label: 5'-Cy3 on strand 1; blunt
T2 sequence: T1 sequence with K32A

AcrIIA15 R2A/L44A = target: T3, AcrIIA15 R2A/L44A (UniProt PDB:8JG9_3 1-171, R3A;L45A); assay: as above; conditions: protein: recombinant; tags: C-terminal His6; label: 5'-Cy3 on strand 1; blunt
T3 sequence: T1 sequence with R3A, L45A

AcrIIA15 L44A = target: T4, AcrIIA15 L44A (UniProt PDB:8JG9_3 1-171, L45A); assay: as above; conditions: protein: recombinant; tags: C-terminal His6; label: 5'-Cy3 on strand 1; blunt
T4 sequence: T1 sequence with L45A

AcrIIA15 K37A = target: T5, AcrIIA15 K37A (UniProt PDB:8JG9_3 1-171, K38A); assay: as above; conditions: protein: recombinant; tags: C-terminal His6; chain copies: 2; label: 5'-Cy3 on strand 1; blunt
T5 sequence: T1 sequence with K38A

AcrIIA15 full-length [8] = target: T1, AcrIIA15 full-length; assay: SPR; Promoter EMSA: 20 mM Tris-HCl pH 7.5, 300 mM NaCl, on ice/4 C, 30 min; SaCas9 EMSA: 20 mM Tris pH 7.5, 200 mM NaCl, 10 mM EDTA, RT; SPR: 10 mM Na2HPO4, 2 mM KH2PO4, 0.3 M NaCl; SEC: 20 mM Tris pH 7.5, 300 mM NaCl; conditions: protein: recombinant; tags: C-terminal His6, or His6-Sumo removed by Ulp1; chain copies: 2; blunt
AcrIIA15 full-length [9] = target: T1, AcrIIA15 full-length; assay: crystal structure; Promoter EMSA: 20 mM Tris-HCl pH 7.5, 300 mM NaCl, on ice/4 C, 30 min; SaCas9 EMSA: 20 mM Tris pH 7.5, 200 mM NaCl, 10 mM EDTA, RT; SPR: 10 mM Na2HPO4, 2 mM KH2PO4, 0.3 M NaCl; SEC: 20 mM Tris pH 7.5, 300 mM NaCl; conditions: protein: recombinant; tags: C-terminal His6, or His6-Sumo removed by Ulp1; chain copies: 2; 5' overhang 1 nt on both strands
AcrIIA15 NTD = target: T6, AcrIIA15 NTD (UniProt PDB:8JFR_1 1-63); assay: as above; conditions: protein: recombinant; tags: C-His6 or His6-Sumo (removed); chain copies: 2; 5' overhang 1 nt on both strands
T6 sequence: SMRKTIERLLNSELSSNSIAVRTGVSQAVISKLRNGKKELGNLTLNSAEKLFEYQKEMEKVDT

[10] = target: T7, SaCas9;AcrIIA15 full-length (Staphylococcus aureus;, UniProt J7RUA5;PDB:8JG9_3 1-1053;1-171, |); assay: cryo-EM; with sgRNA; AcrIIA15 dimer, two SaCas9-sgRNA; Promoter EMSA: 20 mM Tris-HCl pH 7.5, 300 mM NaCl, on ice/4 C, 30 min; SaCas9 EMSA: 20 mM Tris pH 7.5, 200 mM NaCl, 10 mM EDTA, RT; SPR: 10 mM Na2HPO4, 2 mM KH2PO4, 0.3 M NaCl; SEC: 20 mM Tris pH 7.5, 300 mM NaCl; conditions: protein: recombinant;recombinant; tags: His6-Sumo removed by Ulp1;C-terminal His6, or His6-Sumo removed by Ulp1; chain copies: 2;2; blunt
T7 sequence 1: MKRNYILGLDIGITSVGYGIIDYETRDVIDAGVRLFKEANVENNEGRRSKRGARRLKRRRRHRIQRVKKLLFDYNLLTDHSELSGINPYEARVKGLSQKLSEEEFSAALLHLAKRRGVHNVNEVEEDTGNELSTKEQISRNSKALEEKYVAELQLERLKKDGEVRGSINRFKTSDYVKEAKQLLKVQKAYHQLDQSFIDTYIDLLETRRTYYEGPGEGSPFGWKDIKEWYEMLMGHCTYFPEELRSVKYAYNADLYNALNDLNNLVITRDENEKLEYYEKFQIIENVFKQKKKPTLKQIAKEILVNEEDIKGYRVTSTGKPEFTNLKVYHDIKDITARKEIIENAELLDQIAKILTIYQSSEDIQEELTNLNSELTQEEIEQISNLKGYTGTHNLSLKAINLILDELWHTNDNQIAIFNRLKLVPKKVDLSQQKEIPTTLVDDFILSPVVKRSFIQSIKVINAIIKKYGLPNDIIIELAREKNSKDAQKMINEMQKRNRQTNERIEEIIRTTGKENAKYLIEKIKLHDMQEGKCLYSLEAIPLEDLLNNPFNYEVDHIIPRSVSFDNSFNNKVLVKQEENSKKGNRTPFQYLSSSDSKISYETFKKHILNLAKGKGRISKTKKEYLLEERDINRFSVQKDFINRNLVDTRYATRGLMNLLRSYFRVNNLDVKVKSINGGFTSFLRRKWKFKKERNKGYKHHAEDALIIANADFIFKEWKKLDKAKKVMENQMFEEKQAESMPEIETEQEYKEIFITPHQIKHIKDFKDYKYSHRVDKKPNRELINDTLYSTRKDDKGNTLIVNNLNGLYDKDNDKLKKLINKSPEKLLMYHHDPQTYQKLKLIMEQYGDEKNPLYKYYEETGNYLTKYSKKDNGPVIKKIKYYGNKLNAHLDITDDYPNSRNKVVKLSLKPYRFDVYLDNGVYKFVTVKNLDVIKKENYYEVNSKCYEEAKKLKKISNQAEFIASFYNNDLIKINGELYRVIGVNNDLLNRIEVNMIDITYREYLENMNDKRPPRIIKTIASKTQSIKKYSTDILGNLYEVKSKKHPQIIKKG
T7 sequence 2: T1 sequence

stoichiometry N [1]: 2 | stoichiometry N [2]: 2 | stoichiometry N [3]: 2 | stoichiometry N [4]: 2
Molecule: full-length AcrIIA15 (natural protein)

stoichiometry N [5]: 2
Molecule: full-length AcrIIA15 R2A mutant (natural protein)

stoichiometry N [6]: 2
Molecule: N-terminal domain of AcrIIA15 (AcrIIA15^NTD) (domain or fragment)

B1: IR1 mutant in four base pairs (dsDNA)
DNA 1: ATAATTGTTACAAATGTAACAGAAAA
DNA 2: TTTTCTGTTACATTTGTAACAATTAT
binding result (AcrIIA15 full-length [7]): no binding

B2: Cy3-IR1 (dsDNA)
DNA 1: ATAATTATGACAAATGTCATAGAAAA
DNA 2: TTTTCTATGACATTTGTCATAATTAT
binding result (AcrIIA15 K31A): no binding | binding result (AcrIIA15 R2A/L44A): no binding | binding result (AcrIIA15 L44A): no binding | binding result (AcrIIA15 K37A): no binding

B3: IR2 (dsDNA)
DNA 1: TGACTTATGACGAACGTCATAATATA
DNA 2: TATATTATGACGTTCGTCATAAGTCA
Kd (AcrIIA15 full-length [8]): 1.8 ± 0.66 nM

B4: IR1'' (dsDNA)
DNA 1: ATTATGACAAATGTCATAG
DNA 2: TCTATGACATTTGTCATAA
binding result (AcrIIA15 full-length [9]): binds | binding result (AcrIIA15 NTD): binds

B5: IR1 (dsDNA)
DNA 1: ATAATTATGACAAATGTCATAGAAAA
DNA 2: TTTTCTATGACATTTGTCATAATTAT
binding result [10]: binds | Kd (AcrIIA15 full-length [8]): 7.49 ± 0.6 nM
